Data as given in patent US20020123623.

Tested on: T1, Ntlim1 (effector plasmid, BY-2 protoplasts) (Nicotiana tabacum)
T1 sequence: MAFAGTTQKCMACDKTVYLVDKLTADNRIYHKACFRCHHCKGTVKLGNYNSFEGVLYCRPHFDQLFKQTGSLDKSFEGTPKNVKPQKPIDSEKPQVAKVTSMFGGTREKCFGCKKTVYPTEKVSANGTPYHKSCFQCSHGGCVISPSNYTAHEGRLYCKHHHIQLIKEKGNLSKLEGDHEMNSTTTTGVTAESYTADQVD
Assay: cell_activity
Details: about three times GUS expression vs reporter alone in tobacco BY-2 protoplasts; direct binding not measured

Which activity does the source give for CCACTTGAGTAC (double strand) here?
The activity was 3 fold.
